Data on four molecules can be found in paper PMC8723827 (Cell, 2022).

The target in assay [1] is T1, His-tagged SARS-CoV-2 RBD (early pandemic, Wuhan) (SARS-CoV-2, UniProt P0DTC2). The assay is described as follows: SPR. Conditions: both partners purified.
Assay [2] deals with T1, His-tagged SARS-CoV-2 RBD (early …). The assay is described as follows: crystal structure. The note with it: both partners purified.

For orientation: Kd means the concentration at which binding is half-saturated. Read a high Kd as weaker binding.

B1: Beta-55 mAb (IgG) (antibody, V domains shown)
VH: QVQLQESGPGLVKPSETLSLTCTVSGDSISSSRYYWGWIRQPPGKGLEWIGTFYYSGITYYNPSLKSRVTIFVDTSKNQFSLKLSSVTAADTAVYYCARPRPPDYYDNSGALLFDIWGQGTMVTVSS
VL: AIRMTQSPSTLSASVGDRVTIACRASQSISAWLAWYQQKPGKAPKLLIYKASSLESGVPSRFSGSGSGTEFTLTINSLQPDDFATYYCQQYISSSPWTFGQGTKVEIK
For B1, binding in assay [1] was characterised by a dissociation constant (Kd) of 0.177 nM.

B2: mAb 158 Fab (COVOX-158) (Fab, V domains shown)
VH: EVQLLESGGDLIQPGGSLRLSCAASGVTVSSNYMSWVRQAPGKGLEWVSIIYPGGSTFYADSVKGRFTISRDNSKNTLYLQMHSLRAEDTAVYYCARDLGSGDMDVWGKGTTVTVSS
VL: DIVMTQSPSFLSASVGDRVTITCRASQGISSYLAWYQQKPGKAPKLLIQAASTLQSGVPSRFSGSGSGTEFTLTISSLQPEDFATYYCQQLNSYRYTFGQGTKVEIK
Consider B2, for which, in assay [2], the binding result was “binds”.

B3: EY6A mAb (IgG) (antibody, V domains shown)
VH: EVQLVESGGGVVQPGRSLRLSCAASAFTFSSYDMHWVRQAPGKGLEWVAVISYDGSNKYYADSVKGRFTISRDNSKNTLYLQMNSLRAEDTAVYYCAKDGGKLWVYYFDYWGQGTLVTVSS
VL: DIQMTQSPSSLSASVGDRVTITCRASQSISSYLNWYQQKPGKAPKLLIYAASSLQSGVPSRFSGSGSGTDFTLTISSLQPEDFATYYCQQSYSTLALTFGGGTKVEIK
With B3, binding in assay [1] was put at a Kd of 7.8 nM.

B4: mAb 58 Fab (COVOX-58) (Fab, V domains shown)
VH: QVQLVESGGGLVQPGRSLRLSCAASGFTFDDYAMHWVRQPPGKGLEWVSGVSWNSGTIGYADSVKGRFIISRDNAKNSLYLQMNSLKAEDTALYYCAREVGGTFGVLISREGGLDYWGQGTLVTVSS
VL: SYELTQPPSVSVAPGQTARITCGGNTIGSKSVHWYQQRPGQAPVLVVYDDSDRPSGIPERFSGSNSGNTATLTISRVEAGDEADYYCQVWDSSSDRVVFGGGTKLTVL
Consider B4, for which the binding result in assay [2] is reported as “binds”.
